Positions count from the first letter of the chain named.
T1: Canine IL31 (canine)
T1 chain: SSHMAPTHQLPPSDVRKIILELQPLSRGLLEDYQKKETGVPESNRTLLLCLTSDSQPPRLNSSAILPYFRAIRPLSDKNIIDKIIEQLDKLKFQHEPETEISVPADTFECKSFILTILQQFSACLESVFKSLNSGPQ

B1: Caninized VH-VL M14 chimeric antibody (caninized VH of M14 fused to human IgG1 heavy chain and caninized VL of M14 fused to human kappa constant light chain) (antibody, V domains shown)
VH: EVQLVESGPSLVKPGGSLRLTCSVTGDSITSGYWNWIRKFPGNKLEYMGYISYSGITDYNPSLKSRITISRDTSKNQYYLQLNSVTTEDTATYYCARYGNYGYAMDYWGQGTSVTVSS
VL: DIVMTQSPASLSVSLGQRATISCRASESVDTYGNSFMHWYQQKPGQSPKLLIYRASNLESGIPARFGGSGSGTDFTLTIDPVQADDVATYYCQQSYEDPWTFGGGTKLEIK
notes: Chimeric: VH fused to human IgG1 heavy chain, VL fused to human kappa constant light chain; also called analyte 1; caninized VH-VL M14 antibody control
B2: cmVH2 + cmVL2 chimeric antibody (antibody, human IgG1, V domains shown)
VH: B1 VH with N35K, G99P
VL: B1 VL with N34R, Q93Y
notes: also called analyte 3
B3: cmVH1 + cmVL1 chimeric antibody (antibody, human IgG1, V domains shown)
VH: B1 VH with N35K
VL: B1 VL with N34R
notes: also called analyte 2
B4: cmVH3 + cmVL3 chimeric antibody (antibody, human IgG1, V domains shown)
VH: B1 VH with N35K, G99A
VL: B1 VL with N34R, Q93H
notes: also called analyte 6
B5: cmVH2 + cmVL3 chimeric antibody (antibody, human IgG1, V domains shown)
VH: B1 VH with N35K, G99P
VL: B1 VL with N34R, Q93H
notes: also called analyte 4
B6: cmVH3 + cmVL2 chimeric antibody (antibody, human IgG1, V domains shown)
VH: B1 VH with N35K, G99A
VL: B1 VL with N34R, Q93Y
notes: also called analyte 5

Molecular target: T1, Canine IL31
Assay: SPR, BIAcore 8K, Protein A sensor chip
Method: Chimeric antibodies composed of different combinations of cmVH1, cmVH2, or cmVH3 fused to human IgG1 heavy chain and cmVL1, cmVL2, and cmVL3 fused to human kappa constant light chain were generated. Caninized VH of M14 (SEQ ID NO: 3) fused to human IgG1 heavy chain and caninized VL of M14 (SEQ ID NO: 4) fused to human kappa constant light chain was also generated. Affinity of canine IL31 to the different chimeric antibodies was measured using a BIAcore 8K, as described in Table 3 below: […]

Row | Binder | Kd [pM] | koff [s⁻¹] | kon [M⁻¹ s⁻¹]
1 | B1 | 2180 | 0.000523 | 240000
2 | B2 | 914 | 0.000159 | 174000
3 | B3 | 800 | 0.000182 | 228000
4 | B4 | 858 | 0.000185 | 216000
5 | B5 | 868 | 0.000162 | 186000
6 | B6 | 900 | 0.000168 | 187000

— patent US20220324960A1 (KINDRED BIOSCIENCES, published 2022)
